The results in this text go back to the nanobody polyreactivity screen of Harvey et al. (2022).

The nature of the data set: yeast display, Sf9 membrane polyspecificity reagent, FACS + sequencing; frameworks hold sequencing errors. An outline of the steps:
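Galactose induction of a Saccharomyces cerevisiae BJ5465 synthetic nanobody display library ran 36–48 hours. The cells were then stained for 1 hour at 4 °C with 10% biotinylated, detergent-solubilized Sf9 membrane reagent, pulled down on streptavidin microbeads and FACS-sorted into low and high (top ~1%) gates on expression and reagent-binding fluorescence. Labels for polyreactivity follow the gate of origin.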
Turning to “QVQLVESGGGLVQAGGSLRLSCAASGRTFTPYDMGWYRQAPGKERELVAAITWRGGSTYYADSVKGRFTISRDNAKNTVYLQMNSLKPEDTAVYYCAKDRWTYAFRVGYGYWGQGTQVTVSS”, the “polyreactivity (PSR sort gate)” value is recorded as “high polyreactivity”.

For the sequence “QVQLVESGGGLVQAGGSLRLSCAASGRIFSFYTMGWYRQAPGKERELVAAITWSGGSTYYADSVKGRFTISRDNAKNTVYLQMNSLKPEDTAVYYCAADFYLGPTWYYYWGQGTQVTVSS”, the “polyreactivity (PSR sort gate)” value was “high polyreactivity”.

For the sequence “QVQLVESGGGLVQAGGSLRVSCAASGFTFYQYGMGWYRQAPGKERELVATSTSGGRTNYADSVKGRFTISRDNAKNTVYLQMNSLKPEDTAVYYCNKLPYYPRVGRIGRYYYWGQGTQVTVSS”, the “polyreactivity (PSR sort gate)” value is “high polyreactivity”.

Turning to “QVQLVESGGGLVQAGGSLRLSCAASGFIFRDNAMGWYRPAPGKERELVAAISKSGGRTYYADSVKGRFTISRDNAKNTVYLQMNSLKPEDTAVYYCAKASRYWSLYYWGQGTQVTVSS”, the “polyreactivity (PSR sort gate)” value is reported as “high polyreactivity”.

Take “QVQLVESGGGLVQAGGSLRLSCAASGSTLYPNAMGWYRQAPGKERELVAAIRRRGGSTYYADSVKGRFTISRDNAKNTVYLQMNSLKPEDTAVYYCAAYPYKQDPTLVHYDYWGQGTQVTVSS”: the “polyreactivity (PSR sort gate)” value is “low polyreactivity”.

In the case of “QVQLVESGGGLVQAGGSLRLSCAASGSIFYWYAMGWYRQAPGKERELVAAISRNGGNTYYADSVKGRFTISRDNAKNTVYLQMNSLKPEDTAVYYCAVAGTVLSHMGYWGQGTQVTVSS”, the “polyreactivity (PSR sort gate)” value is listed as “low polyreactivity”.

On to “QVQLVESGGGLVQAGGSLRLSCAASGRTFYSYAMGWYRQAPGKERELVAAISKRGTSTYYADSVKGRFTISRDNAKNTVYLQMNSLKPEDTAVYYCAAAYRGREVEYNSWGQGTQVTVSS”, for which the “polyreactivity (PSR sort gate)” value is “high polyreactivity”.

Consider “QVQLVESGGGLVQAGGSLRLSCAASGSIINAYAMGWYRPAPGKERELVAAINSGGTTYYADSVKGRFTISRDNAKNTVYLQMISLKPEDTAVYYCNAVSKWAIYDYWGQGTQVTVSS”, for which the “polyreactivity (PSR sort gate)” value is given as “high polyreactivity”.

On to “QVQLVESGGGLVQAGGSLRLSCAASGIIFDTNAMGWYRQAPGKERELVASISKRGGSTYYADSVKGRFTISRDNAKNTVYLQMNSLKPEDTAVYYCNALRRRQYHDDYWGQGTQVTVSS”, for which the “polyreactivity (PSR sort gate)” value is on record as “high polyreactivity”.

For the sequence “QVQLVESGGGLVQAGGSLRLRCAASGSTSAYYAMGWYRQAPGKERELVAAISWSGGRTYSADSVKGRFTISRDNAKNTVYLQMNSLKPEDTAVYYCAARFWFTKGYDYWGQGTQVTVSS”, the “polyreactivity (PSR sort gate)” value is reported as “high polyreactivity”.

For “QVHLVESGGGLVQAGGSLRLSCAASGRTFDVYAMGWYRQATGKERQLVATISYRSARTYYADSVKGRFTISRDNAKNTVYLQMNSLKPEDTAVYYCAAYFETWHGFGYWGQGTQVTVSS”, the “polyreactivity (PSR sort gate)” value is “high polyreactivity”.

Consider “QVQLVESGGGLVQAGGSLRLSCAASGRIFYRYAMGWYRQAPGKERELVAAITGSGGSTYYADSVKGRFTISRDNAKNTVYLQMNSLKPEDTAVYYCNAVYARYGSQGYEYWGHGTQVTVSS”, for which the “polyreactivity (PSR sort gate)” value is given as “high polyreactivity”.

Regarding “QVQLVESGGGLVQAGGSLRLSCAASGRIFWANTMGWYRQAPGKERELVAAITYSGDSTYYADSVKGRFTISRDNAKNTVYLQMNSLKPEDTAVYYCNAVPSKFSWAVYRGQYDYDYWGQGTQVTVSS”, the “polyreactivity (PSR sort gate)” value is listed as “low polyreactivity”.

On to “QVQLVESGGGLVQAGGSLRLSCAASGRIFYYYAMGWYRQAPGKESELVAAISGGGGRTYYADSVKGRFTISRDNAKHTVYLQMNSLKPEDTAVYYCNADYFYRTVNQRYDYWGQGTQVTVSS”, for which the “polyreactivity (PSR sort gate)” value was “high polyreactivity”.

Consider “QVQLVESGGGLVQAGGSLRLSCAASGFTFGVNAMGWYRQAPGKERELVAAISSSGGRTYYADSVKGRFTISRDNAKNTVYLQMNSLKQEDTAVYYCAARYVYTRGGPLKRDYWGQGTQVTVSS”, for which the “polyreactivity (PSR sort gate)” value is “high polyreactivity”.

Take “QVQLVESGGGLVQAGGSLRLICAASGRIFYDNALGWYRQAPGKERELVAAISESGTSTYYADSVKGRFTISRDNAKNTVYLQMNSLKPEDTAVYYCAAYFTWNRKVFYYWGQGTQVTVSS”: the “polyreactivity (PSR sort gate)” value is recorded as “high polyreactivity”.

On to “QVQLVESGGGLVQAGGSLRLSCAASGFIFWYYAMGWYRQAPGKERELVAAISSRGGSTYYADSVKGRFTISRDNAKNTVYLQMNSLKPEDTAVYYCAATGYTGYSRYYYWGQGTQVTVSS”, for which the “polyreactivity (PSR sort gate)” value was “high polyreactivity”.

For the sequence “QVQLVESGGGLVQAGGSLRLSCAASGRIFDPYAMGWYRQAPGKERELVASISWSGGRTYYADSVKGRFTISRDNAKNTVYLQMNSLKPEDTAVYYCARDYGQYGWYRYGRTYDHWGQGTQVTVSS”, the “polyreactivity (PSR sort gate)” value is on record as “high polyreactivity”.

Take “QVQLVESGGGLVQAGGSLRLSCAASGSIFRVYTMGWYRQAPGKERELVAAISRSGGRTYYADSVKGRFTISRDNAKNTVYLQMNSLKPEDTAVYYCNAQYGGQYGYGYWGQGTQVTVSS”: the “polyreactivity (PSR sort gate)” value is “high polyreactivity”.

As to “QVQLVESGGGLVQAGGSLRLSCAASGSTFYWNAMGWYRQAPGKERELVAAIRRSSDRTYYADSVKGRFTISRDNAKNTVYLQMNSLKPEDTAVYYCAADAYYTYRLDYWGQGTQVTVSS”, the “polyreactivity (PSR sort gate)” value is “high polyreactivity”.

On to “QVQLVESGGCLVQAGGSLRLSCAASGRTYVVNAMGWYRHAPGKESELVAAITTGGSTYYADSVKGRFTISRENAKYTVYLQMNSLKPEDTAVYYCAADIYLYYIFDYWVDYDYWGQCTQVTVSS”, for which the “polyreactivity (PSR sort gate)” value is “high polyreactivity”.

For “QVQLVDSGGGLVQAGGSLRLICAASGFIFTDYAMGWYRQAPGKEREFFAAIDWSGGNTYYADSVKGRFTISRDNAKNTVYLQMKSLKPEDTAVYYCAASGSAREYDYWGQGTQVTVSS”, the “polyreactivity (PSR sort gate)” value is recorded as “low polyreactivity”.

With “QFQLVESGGGLVQAGGSLRLSCAASGGTFPYNAMGWYRQAPGKERELVAAISSSGTSTYYADSVKGRFTISRDNAKNTVYLQMNSLKPEDTAVYYCNDYFKRYDYWGQGTQVTVSS”, the “polyreactivity (PSR sort gate)” value was “high polyreactivity”.

As to “QVQLVESGGGLVQAGGSLRLICAASGSTFRHYAMGWYRQAPGKERELVAAIRRSGGTTYYADSVKGRFTISRDNAKNTVYLHMNSLKPEDTAVYYCAARLTVRKLVRFDYWGQGTQVTVSS”, the “polyreactivity (PSR sort gate)” value was “low polyreactivity”.

With “QVQIVESGGGLVQAGGSLRLSCAASGSTFARNAMGWYRQAPGKEREFVASIRWGGVSTYYADSVKGRFTISRDNAKNTVYLQMNSLKPEDTAVYYCATGRKNAAQRWGYYYWGQGTQVTVSS”, the “polyreactivity (PSR sort gate)” value is listed as “high polyreactivity”.

As to “QVQLVESGGGLVQAGGSLRLSCAASGGIFSAYDMGWYRQAPGTERELVAAINSGGSTNYADSVKGRFTISRDNAKNTVYLQMNSLKPEDTAVYYCAAAKVSWFGLKYYYWGQGTQVTVSS”, the “polyreactivity (PSR sort gate)” value was “high polyreactivity”.

In the case of “QVQLVESGGGLVQAGGSHRLSCAASGSTFTGYAMACYRQAPGKEREFVAGNTGSGGSTYYADSVKGRFTISRDIAKNSVYFQMISLKPEDTAVYYCAASFWYHYVWLDYYWGQGTQVTVSS”, the “polyreactivity (PSR sort gate)” value is given as “low polyreactivity”.

Consider “QVQHVESGGGLVQARGSLRLSCSASGGTFSVYPMGWSRQAPVKERELLADISWSDASTYYADSVKGRFTISRDNAKNTVYLQMNSLKPEDTAVYYCAVSRQSGKGGSKELNDYWVQGTQVTVSS”, for which the “polyreactivity (PSR sort gate)” value was “low polyreactivity”.

As to “QVQLVESGGGLVQAGGSLRLSCAASGSTFSSNAMGWYRQAPGKERELVAAINRRGGTYYADSVKGRFTISRDNAKNTVYLQMNSLKPEDTAVYYCAAASPYHEYDYWGQGTQVTVSS”, the “polyreactivity (PSR sort gate)” value was “low polyreactivity”.

In the case of “QDQLVESVGGLVQAGVSLRLSCAASGSTLRKYAMGWYRQAPGKESELVAAISNSGGGTYYADSVKGRFTISRDNAKNTVYLQMNSLKPEDTAVYYCAARYGPSYGYGLYYPRRDYWGQGTQVTVSS”, the “polyreactivity (PSR sort gate)” value is given as “high polyreactivity”.

Turning to “QVQLVESGGGLVQAGGSLRLRCAASGSIFQSNAMGWYRPAPGKESELVAAISSSGVRTYYADSVKGRFTISRDNAKNTVYLQMNSLKPEDTAVYYCATGWYYAGGPTYEYYYWGQGTQVTVSS”, the “polyreactivity (PSR sort gate)” value was “low polyreactivity”.

As to “QVQLVESGGGLVQAGGSLLLSCAASGSIFGSNAMGWYTQATVKERELVAVITNGGRTYYADSVKGLFTISRDNAKNTVYLQMNSLKPEDTAVYYCAASRVYGWYGSYSTYGSVGQGTQVTVSS”, the “polyreactivity (PSR sort gate)” value is listed as “high polyreactivity”.

For the sequence “QVQLVESGGGLFQAGGSLRLSCAASGIIFPYYVMGWSRQAPGTEREFVATISWSGGRTYYADSVKGRFTISRDNAKNTVYFQMNSLKPEDTAVYYCAAAKHYYNGYGYWGQGTQVTVSS”, the “polyreactivity (PSR sort gate)” value was “high polyreactivity”.

As for “QVQLVESGGVLVQAGGSLRLSCAASGSTFSWYAMGWYRQAPGKERELFAGITRSDGSTYYADSVKGRFTNSRDNAKNNVYLQMNSLKPEDTAVYYCAADDYIIRYGTNVDYWGQGTQVTVSS”, the “polyreactivity (PSR sort gate)” value is reported as “low polyreactivity”.

As for “QVQLVESGGGLVQAGGSLRLSCAASGRIFYPYAMGWYRQAPGKERELVASITWRGGSTYYADSVKGRFTISRDNAKNTVYLQMNSLKPEDTAVYYCAAVPYSYTYVYLSHYDYWGQGTQVTVSS”, the “polyreactivity (PSR sort gate)” value is given as “low polyreactivity”.

On to “QVQLVESGGGLVQAGGSLRLSCAASGFTFVSNAMGWYRQAPGKERELVAVISSGGSTTYADSVKGRFTISRDNAKNTVYLQMNSLKPEDTAVYYCATTNYQDSYEGGDYWGQGTQVTVSS”, for which the “polyreactivity (PSR sort gate)” value is “low polyreactivity”.

As for “QVQLVESGGGLVQAGGSLRLSCAASGSIFRDNAMGWYRQAPGKERELVAAINVRDGDTFYADSVKGRFTISRDNAKNTVYLQMNSLKPEDTAVYYCAVPGATSYFAYDSWGQGTQVTVSS”, the “polyreactivity (PSR sort gate)” value is listed as “low polyreactivity”.

With “QVQLVESGGGLVQAGGSLRLSFAASGSTFTYNDMGWYRQAPGKERELVARITFSSGRTYYADSVKGRFTISRDNAKNTVYLQMNSLKPEDTAVYYCARQWYWRPGYYIGQGYEYWGQGTQVTVSS”, the “polyreactivity (PSR sort gate)” value was “low polyreactivity”.

Turning to “QVQLEESGGGLVQVGGSLRLSCAASGLTFRYYAMGWYRQAPGKERELVAAISGSGSTTYYADSVKGRFTISRDNAKNTVYLQMNSLKPEDTAVYYCNARRTGRVGGVVTHYYWGQGTQVTVSS”, the “polyreactivity (PSR sort gate)” value is given as “high polyreactivity”.

For “QVQLVESGGGLVQAGGSLRLSCAASGSIYTNAMGWYRQAPGKERELVAAISWSGGRTYYADSVKGRFTISRDNAKNTVYLQMNSLKPEDTAVYYCAADYYYSQVAYDYWGQGTQVTVSS”, the “polyreactivity (PSR sort gate)” value is “high polyreactivity”.
